Residue numbers refer to the chain shown, from its start. Read-outs that look alike come from different tables or passages of the source. Blank lines part the entries; values can stand above or below the binder they belong to.
Legend:
His-human LIGHT [1] = biological target: T1, His-human LIGHT (human); assay: cell-based or functional assay
T1 chain: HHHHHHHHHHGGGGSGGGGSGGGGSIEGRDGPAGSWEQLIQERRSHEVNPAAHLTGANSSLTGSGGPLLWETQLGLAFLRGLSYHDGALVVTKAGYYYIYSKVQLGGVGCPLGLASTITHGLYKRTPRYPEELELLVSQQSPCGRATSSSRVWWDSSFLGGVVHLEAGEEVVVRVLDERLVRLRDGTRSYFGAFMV

[2] = biological target: T2, LIGHT on the surface of HEK293-LIGHT stable cells (human, UniProt O43557 1-240); assay: cell-based or functional assay
His-human LIGHT [3] = biological target: T1, His-human LIGHT; assay: cell-based or functional assay
His-human LIGHT [4] = biological target: T1, His-human LIGHT; assay: ELISA, His-huLIGHT coated
[5] = biological target: T3, His-cynomolgus monkey LIGHT (cynomolgus monkey); assay: ELISA, His-cynoLIGHT coated
T3 construct: also called His-cynoLIGHT
T3 chain: T1 chain with P32H, A33G, E47Q, V48N, S83D, V91A, T92N, S149N, A167V

hFc-human LIGHT [6] = biological target: T4, hFc-human LIGHT (human); assay: competition ELISA, LTβR-His coated, hFc-huLIGHT added
T4 construct: also called hFc-huLIGHT

His-human LIGHT [7] = biological target: T1, His-human LIGHT; assay: cell-based or functional assay
[8] = biological target: T2, LIGHT on the surface of HEK293-LIGHT …; assay: cell-based or functional assay; remark: listed apart in the source
His-human LIGHT [9] = biological target: T1, His-human LIGHT; assay: cell-based or functional assay
His-human LIGHT [10] = biological target: T1, His-human LIGHT; assay: cell-based or functional assay
His-human LIGHT [11] = biological target: T1, His-human LIGHT; assay: ELISA, His-huLIGHT coated
hFc-human LIGHT [12] = biological target: T4, hFc-human LIGHT; assay: competition ELISA, LTβR-His coated, hFc-huLIGHT added; remark: listed apart in the source
His-human LIGHT [13] = biological target: T1, His-human LIGHT; assay: cell-based or functional assay
His-mouse LIGHT = biological target: T5, His-mouse LIGHT (mouse); assay: ELISA, His-musLIGHT coated
T5 construct: also called His-musLIGHT
T5 chain: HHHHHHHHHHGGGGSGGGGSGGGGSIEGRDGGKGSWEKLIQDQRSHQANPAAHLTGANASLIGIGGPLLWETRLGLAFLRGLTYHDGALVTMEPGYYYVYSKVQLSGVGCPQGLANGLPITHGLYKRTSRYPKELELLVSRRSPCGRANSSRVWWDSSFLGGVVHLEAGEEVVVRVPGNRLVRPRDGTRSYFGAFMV

His-human LIGHT [14] = biological target: T1, His-human LIGHT; assay: cell-based or functional assay
His-human LIGHT [15] = biological target: T1, His-human LIGHT; assay: ELISA, His-huLIGHT coated
His-human LIGHT [16] = biological target: T1, His-human LIGHT; assay: SPR, Biacore 8K, antibody on CM5 chip
[17] = biological target: T3, His-cynomolgus monkey LIGHT; assay: SPR, Biacore 8K, antibody on CM5 chip
His-human LIGHT [18] = biological target: T1, His-human LIGHT; assay: ELISA, His-huLIGHT coated
hFc-human LIGHT [19] = biological target: T4, hFc-human LIGHT; assay: competition ELISA, LTβR-His coated, hFc-huLIGHT added; remark: listed apart in the source
His-human LIGHT [20] = biological target: T1, His-human LIGHT; assay: cell-based or functional assay
[21] = biological target: T2, LIGHT on the surface of HEK293-LIGHT …; assay: cell-based or functional assay; remark: listed apart in the source
His-human LIGHT [22] = biological target: T1, His-human LIGHT; assay: cell-based or functional assay
His-human LIGHT [23] = biological target: T1, His-human LIGHT; assay: ELISA, His-huLIGHT coated
[24] = biological target: T3, His-cynomolgus monkey LIGHT; assay: ELISA, His-cynoLIGHT coated
hFc-human LIGHT [25] = biological target: T4, hFc-human LIGHT; assay: competition ELISA, LTβR-His coated, hFc-huLIGHT added; remark: listed apart in the source

IC50, LTβR NF-κB luciferase reporter, free LIGHT (His-human LIGHT [1]): 0.269 µg/mL | IC50, LTβR NF-κB luciferase reporter, HEK293-LIGHT cells [2]: 5.39 µg/mL | IC50, HVEM NF-κB luciferase reporter, free LIGHT (His-human LIGHT [3]): 0.118 µg/mL | EC50 (His-human LIGHT [4]): 0.0662 µg/mL | EC50 [5]: 0.0468 nM | IC50 (hFc-human LIGHT [6]): 0.0754 nM
B1: hum_LT-m37-1 (antibody, human IgG4, V domains shown)
VH: QVQLVQSGAEVKKPGASVKVSCKASGYSFTGYFINWVRQAPGQSLEWIGRIYPYNVNTFYNQNFKGRATLTADKSTSTAYMELSSLRSEDTAVYYCGRGTHYYGSSGAMDYWGQGTLVTVSS
VL: EIVLTQSPATLSVSPGERATLSCKASQNVGTAVAWYQQKPGQSPRLLIYSASNRYTGIPARFSGSGSGTEFTLTISSLQSEDFAVYFCQQYSSYPYTFGGGTKVEIK
notes: humanized from LT-m37

binding result (His-mouse LIGHT): no binding | IC50, HVEM NF-κB luciferase reporter (293T-HVEM-NF-κB-Luc), free LIGHT (His-human LIGHT [14]): 0.124 µg/mL | EC50 (His-human LIGHT [15]): 0.0121 µg/mL | Kd (His-human LIGHT [16]): 0.0674 nM | koff (His-human LIGHT [16]): 5.28e-05 s⁻¹ | kon (His-human LIGHT [16]): 783000 M⁻¹ s⁻¹ | Kd [17]: 0.0601 nM | koff [17]: 6.72e-05 s⁻¹ | kon [17]: 1.12e+06 M⁻¹ s⁻¹
B4: LT-m85 (antibody, human IgG4, V domains shown)
VH: EVQLQQSGAELVKPGASVKMSCKASGYTFTSYNVHWVKQTPGQGLEWIGAVYPGNGDTSYNQKFKGKATLTADKSSNTAYMQLSSLTSEDSAVYYCARGSYYYTSSYFDHWGQGTTLTVSS
VL: DIVLTQSPASLAVSLGQRATISCKASQSVDFDGDSYMNWYQQKPGQPPKLLIYTASNLESGIPARFTGSGSGTDFTLNIHPVEEEDAATYYCQQSYEDPFTFGSGTKLEIK

EC50 (His-human LIGHT [18]): 0.00617 nM | IC50 (hFc-human LIGHT [19]): 0.208 nM
B5: hum_LT-m58-4 (antibody, human IgG4, V domains shown)
VH: QVQLVQSGAEVKKPGASVKVSCKASGYTFIDHIMNWVRKAPGQGLEWMGRIYPVSGETNYNQKFMGRATFTVDRSTSTVYMELSSLRSEDTAVYYCGRGSYYWNAMDYWGQGTLVTVSS
VL: EIVMTQSPATLSVSPGERATLSCKASQSVDFDGESYMNWYQQKPGQPPRLLIYSASNLESGIPARFSGSGSGTEFTLTISSLQSEDFAVYYCQQSIEDPWTFGQGTKLEIK
notes: humanized from LT-m58

Further lines, the binder ahead of its results:

B2: hum_LT-m37-13 (antibody, human IgG4, V domains shown)
VH: B1 VH with S44G, N57D, A68V, L70M
VL: B1 VL
notes: humanized from LT-m37
IC50, LTβR NF-κB luciferase reporter, free LIGHT (His-human LIGHT [7]): 0.227 nM | IC50, LTβR NF-κB luciferase reporter, HEK293-LIGHT cells [8]: 0.867 nM | IC50, LIGHT induced MMP-9 production in BEAS-2B bronchial epithelial cells (His-human LIGHT [9]): 0.358 µg/mL | IC50, proliferation of CD3+ T cells stimulated by plate-bound anti-CD3 and His-huLIGHT (CellTiter Glo) (His-human LIGHT [10]): 0.311 µg/mL | EC50 (His-human LIGHT [11]): 0.0422 nM | EC50 [5]: 0.104 nM | IC50 (hFc-human LIGHT [12]): 0.867 nM

B3: hum_LT-m37-14 (antibody, human IgG4, V domains shown)
VH: B1 VH with N57D
VL: B1 VL with F87Y
notes: humanized from LT-m37
IC50, LTβR NF-κB luciferase reporter, free LIGHT (His-human LIGHT [7]): 0.182 nM | IC50, LTβR NF-κB luciferase reporter, HEK293-LIGHT cells [8]: 1.86 nM | IC50, HVEM NF-κB luciferase reporter, free LIGHT (His-human LIGHT [13]): 0.161 nM | IC50, LIGHT induced MMP-9 production in BEAS-2B bronchial epithelial cells (His-human LIGHT [9]): 0.352 µg/mL | IC50, proliferation of CD3+ T cells stimulated by plate-bound anti-CD3 and His-huLIGHT (CellTiter Glo) (His-human LIGHT [10]): 0.332 µg/mL | EC50 (His-human LIGHT [11]): 0.0464 nM | EC50 [5]: 0.104 nM | IC50 (hFc-human LIGHT [12]): 1.02 nM

B6: hum_LT-m58-3 (antibody, human IgG4, V domains shown)
VH: B5 VH
VL: DIVMTQSPDSLAVSLGERATINCKASQSVDFDGDSYMNWYQQKPGQPPKLLIYSASNLESGVPDRFSGSGSGTDFTLTISSLQAEDVAVYYCQQSIEDPWTFGQGTKVEIK
notes: humanized from LT-m58
EC50 (His-human LIGHT [18]): 0.0112 nM | IC50 (hFc-human LIGHT [19]): 0.169 nM

B7: hum_LT-m85-3 (antibody, human IgG4, V domains shown)
VH: QVQLVQSGAEVKKPGASVKVSCKASGYTFTSYNVHWVRQAPGQGLEWIGAVYPGNGDTSYNQKFKGRATLTADKSTSTVYMELSSLRSEDTAVYYCARGSYYYTSSYFDHWGQGTLVTVSS
VL: B5 VL with E34D, S54T, I96Y, W100F
notes: humanized from LT-m85
binding result (His-mouse LIGHT): no binding | IC50, LTβR NF-κB luciferase reporter, free LIGHT (His-human LIGHT [20]): 0.159 nM | IC50, LTβR NF-κB luciferase reporter, HEK293-LIGHT cells [21]: 4.68 nM | IC50, HVEM NF-κB luciferase reporter, free LIGHT (His-human LIGHT [22]): 0.564 nM | EC50 (His-human LIGHT [23]): 0.00869 nM | EC50 [24]: 0.0155 nM | IC50 (hFc-human LIGHT [25]): 0.282 nM

— patent EP4596580A1 (Staidson (Beijing) Biopharmaceuticals Co., Ltd., dated 2025)
